Patent US20150344570A1 (published 2015)

B1: GpH7-A5/GpH7-B3 variant L234_05P/GpL16-k0 (antibody, human IgG1, kappa)
heavy 1: not shown
heavy 2: not shown
light: DIVMTQSPLSLPVTPGEPASISCQASESLVHSNRNTYLHWYLQKPGQSPQLLIYKVSNRFSGVPDRFSGSGSGTDFTLKISRVEAEDVGVYYCSQNTHVPPTFGQGTKVEIERTVAAPSVFIFPPSDEQLKSGTASVVCLLNNFYPREAKVQWKVDNALQSGNSQESVTEQDSKDSTYSLSSTLTLSKADYEKHKVYACEVTHQGLSSPVTKSFNRGEC
notes: also called He Ab
B2: GpH7-A5/GpH7-B3 variant L234_15Y/GpL16-k0 (antibody, human IgG1, kappa)
heavy 1: not shown
heavy 2: not shown
light: B1 light
notes: also called He Ab; GpH7-A5/GpH7-B3-01-15Y/GpL16-k0
B3: GpH7-A5/GpH7-B3 variant E269_02A/GpL16-k0 (antibody, human IgG1, kappa)
heavy 1: not shown
heavy 2: not shown
light: B1 light
notes: also called He Ab
B4: GpH7-A5/GpH7-B3 variant L234_07I/GpL16-k0 (antibody, human IgG1, kappa)
heavy 1: not shown
heavy 2: not shown
light: B1 light
notes: also called He Ab
B5: GpH7-A5/GpH7-B3 variant G236_07I/GpL16-k0 (antibody, human IgG1, kappa)
heavy 1: not shown
heavy 2: not shown
light: B1 light
notes: also called He Ab
B6: GpH7-A5/GpH7-B3 variant G236_08L/GpL16-k0 (antibody, human IgG1, kappa)
heavy 1: not shown
heavy 2: not shown
light: B1 light
notes: also called He Ab
B7: GpH7-A5/GpH7-B3 variant G236_16H/GpL16-k0 (antibody, human IgG1, kappa)
heavy 1: not shown
heavy 2: not shown
light: B1 light
notes: also called He Ab
B8: GpH7-A5/GpH7-B3 variant H268_06M/GpL16-k0 (antibody, human IgG1, kappa)
heavy 1: not shown
heavy 2: not shown
light: B1 light
notes: also called He Ab
B9: GpH7-A5/GpH7-B3 variant L235_03V/GpL16-k0 (antibody, human IgG1, kappa)
heavy 1: not shown
heavy 2: not shown
light: B1 light
notes: also called He Ab
B10: GpH7-A5/GpH7-B3 variant G236_15Y/GpL16-k0 (antibody, human IgG1, kappa)
heavy 1: not shown
heavy 2: not shown
light: B1 light
notes: also called He Ab
B11: GpH7-A5/GpH7-B3 variant L235_05P/GpL16-k0 (antibody, human IgG1, kappa)
heavy 1: not shown
heavy 2: not shown
light: B1 light
notes: also called He Ab
B12: GpH7-A5/GpH7-B3 variant L234_16H/GpL16-k0 (antibody, human IgG1, kappa)
heavy 1: not shown
heavy 2: not shown
light: B1 light
notes: also called He Ab
B13: GpH7-A5/GpH7-B3 variant E269_01G/GpL16-k0 (antibody, human IgG1, kappa)
heavy 1: not shown
heavy 2: not shown
light: B1 light
notes: also called He Ab
B14: GpH7-A5/GpH7-B3 variant L235_11K/GpL16-k0 (antibody, human IgG1, kappa)
heavy 1: not shown
heavy 2: not shown
light: B1 light
notes: also called He Ab
B15: GpH7-A5/GpH7-B3 variant L234_11K/GpL16-k0 (antibody, human IgG1, kappa)
heavy 1: not shown
heavy 2: not shown
light: B1 light
notes: also called He Ab
B16: GpH7-A5/GpH7-B3 variant L235_12R/GpL16-k0 (antibody, human IgG1, kappa)
heavy 1: not shown
heavy 2: not shown
light: B1 light
notes: also called He Ab
B17: GpH7-A5/GpH7-B3 variant G236_12R/GpL16-k0 (antibody, human IgG1, kappa)
heavy 1: not shown
heavy 2: not shown
light: B1 light
notes: also called He Ab
B18: GpH7-A5/GpH7-B3 variant L234_19Q/GpL16-k0 (antibody, human IgG1, kappa)
heavy 1: not shown
heavy 2: not shown
light: B1 light
notes: also called He Ab
B19: GpH7-A5/GpH7-B3 variant G236_04F/GpL16-k0 (antibody, human IgG1, kappa)
heavy 1: not shown
heavy 2: not shown
light: B1 light
notes: also called He Ab
B20: GpH7-A5/GpH7-B3 variant L235_01G/GpL16-k0 (antibody, human IgG1, kappa)
heavy 1: not shown
heavy 2: not shown
light: B1 light
notes: also called He Ab
B21: GpH7-A5/GpH7-B3 variant G236_05P/GpL16-k0 (antibody, human IgG1, kappa)
heavy 1: not shown
heavy 2: not shown
light: B1 light
notes: also called He Ab
B22: GpH7-A5/GpH7-B3 variant G236_03V/GpL16-k0 (antibody, human IgG1, kappa)
heavy 1: not shown
heavy 2: not shown
light: B1 light
notes: also called He Ab
B23: GpH7-A5/GpH7-B3 variant L234_12R/GpL16-k0 (antibody, human IgG1, kappa)
heavy 1: not shown
heavy 2: not shown
light: B1 light
notes: also called He Ab
B24: GpH7-A5/GpH7-B3 variant L234_03V/GpL16-k0 (antibody, human IgG1, kappa)
heavy 1: not shown
heavy 2: not shown
light: B1 light
notes: also called He Ab
B25: GpH7-A5/GpH7-B3 variant G236_20W/GpL16-k0 (antibody, human IgG1, kappa)
heavy 1: not shown
heavy 2: not shown
light: B1 light
notes: also called He Ab; GpH7-A5/GpH7-B3-03-20W/GpL16-k0
B26: GpH7-A5/GpH7-B3 variant G237_11K/GpL16-k0 (antibody, human IgG1, kappa)
heavy 1: not shown
heavy 2: not shown
light: B1 light
notes: Heterodimerized anti-glypican-3 IgG1; mutation only in the GpH7-B3 H chain; also called He Ab
B27: GpH7-A5/GpH7-B3 variant G237_12R/GpL16-k0 (antibody, human IgG1, kappa)
heavy 1: not shown
heavy 2: not shown
light: B1 light
notes: as for B26
B28: GpH7-A5/GpH7-B3 variant G237_11K/GpL16-k0 (antibody, human IgG1, kappa)
heavy 1: not shown
heavy 2: not shown
light: B1 light
notes: Heterodimerized anti-glypican-3 IgG1; mutation in one H chain only; also called He Ab
B29: GpH7-A5/GpH7-B3 variant G237_12R/GpL16-k0 (antibody, human IgG1, kappa)
heavy 1: not shown
heavy 2: not shown
light: B1 light
notes: as for B28

These binders were tested against T1, FcγRIIIa extracellular domain with C-terminal His tag (human, UniProt P08637 17-208) (assay: SPR, binding relative to GpH7-A5/GpH7-B3/GpL16-k0 = 100).
T1 construct: extracellular domain; also called 3a; FcgRIIIa
Method: (§1) The heterodimerized antibodies He Abs in which one of the H chains was introduced with an alteration were assayed for their binding activities to each activating FcγR and inhibitory FcγR according to the method described in Example 4. […] The activating FcγRs in FIGS. 26, 27, 28, and 29 are FcγRIa, FcγRIIa (R), FcγRIIa (H), and FcγRIIIa, respectively.
(§2) Analysis of interaction between objective antibody and the FcγR was carried out using Biacore T100 (GE Healthcare). HBS-EP+ (GE Healthcare) was used as the running buffer, and the measurement temperature was set to 25° C. Chips produced by immobilizing the antigen peptide by the amine coupling method to a Series S Sencor Chip CM5 (GE Healthcare), or alternatively, chips produced by allowing preliminarily biotinylated antigen peptides to interact with and immobilize onto a Series S Sensor Chip SA (certified) (GE Healthcare) were used. Antibodies of interest were captured onto an antigen peptide-immobilized chip, and allowed to interact to each FcγR diluted with running buffer. To regenerate and repeatedly use the chip, the antibodies captured on the chip were washed off by reacting 10 mM glycine-HCl, pH 1.5.

T1 sequence (P08637 17-208): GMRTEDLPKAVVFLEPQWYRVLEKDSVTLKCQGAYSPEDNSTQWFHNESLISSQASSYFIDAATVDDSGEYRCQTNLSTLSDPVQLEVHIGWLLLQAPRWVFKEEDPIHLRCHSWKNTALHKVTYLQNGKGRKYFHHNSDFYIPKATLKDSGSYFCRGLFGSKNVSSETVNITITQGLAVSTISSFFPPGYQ

Row | Binder | He/Con_3a
1 | B1 | 88.1 % of control
2 | B2 | 130 % of control
3 | B3 | 68.7 % of control
4 | B4 | 103 % of control
5 | B5 | 59.7 % of control
6 | B6 | 32.5 % of control
7 | B7 | 43.1 % of control
8 | B8 | 80.3 % of control
9 | B9 | 98 % of control
10 | B10 | 121 % of control
11 | B11 | 71.1 % of control
12 | B12 | 79.5 % of control
13 | B13 | 62.2 % of control
14 | B14 | 38.1 % of control
15 | B15 | 30.5 % of control
16 | B16 | 41.2 % of control
17 | B17 | 12.5 % of control
18 | B18 | 79.8 % of control
19 | B19 | 87 % of control
20 | B20 | 58.8 % of control
21 | B21 | 37.1 % of control
22 | B22 | 57.7 % of control
23 | B23 | 36.9 % of control
24 | B24 | 91.4 % of control
25 | B25 | 135 % of control

Each binder was assayed against T2, FcγRIIb extracellular domain with C-terminal His tag (human, UniProt P31994 43-217) in the same assay as above.
T2 construct: extracellular domain; also called 2b; FcgRIIb
T2 sequence (looked up): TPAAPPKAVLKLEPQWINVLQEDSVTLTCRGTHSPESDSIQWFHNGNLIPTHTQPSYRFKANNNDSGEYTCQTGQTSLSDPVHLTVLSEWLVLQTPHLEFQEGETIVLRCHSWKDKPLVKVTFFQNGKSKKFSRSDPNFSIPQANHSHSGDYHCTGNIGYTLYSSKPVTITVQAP
Method: as §1, §2

Row | Binder | He/Con_2b
26 | B1 | 72.9 % of control
27 | B2 | 96.3 % of control
28 | B3 | 49.9 % of control
29 | B4 | 80.9 % of control
30 | B5 | 31 % of control
31 | B6 | 26.8 % of control
32 | B7 | 27.9 % of control
33 | B8 | 65.7 % of control
34 | B9 | 66.4 % of control
35 | B10 | 39.5 % of control
36 | B11 | 54.7 % of control
37 | B12 | 59.4 % of control
38 | B13 | 51.5 % of control
39 | B14 | 6.3 % of control
40 | B15 | 16.2 % of control
41 | B17 | 6.8 % of control
42 | B18 | 60.3 % of control
43 | B19 | 39.3 % of control
44 | B20 | 35.4 % of control
45 | B21 | 19 % of control
46 | B22 | 35.3 % of control
47 | B23 | 18.9 % of control
48 | B24 | 73.1 % of control
49 | B25 | 58.2 % of control

The binders below were run against T1, FcγRIIIa extracellular domain with … (assay: SPR; ratio of He/Con_3a (FcγRIIIa) to He/Con_2b (FcγRIIb)).
Method: as §1, §2

Row | Binder | He_3a/2b (IIIa/IIb)
50 | B1 | 1.21
51 | B2 | 1.35
52 | B3 | 1.38
53 | B4 | 1.27
54 | B5 | 1.93
55 | B6 | 1.21
56 | B7 | 1.54
57 | B8 | 1.22
58 | B9 | 1.48
59 | B10 | 3.06
60 | B11 | 1.3
61 | B12 | 1.34
62 | B13 | 1.21
63 | B14 | 6.06
64 | B15 | 1.88
65 | B16 | 4.29
66 | B17 | 1.84
67 | B18 | 1.32
68 | B19 | 2.21
69 | B20 | 1.66
70 | B21 | 1.95
71 | B22 | 1.64
72 | B23 | 1.95
73 | B24 | 1.25
74 | B25 | 2.33

The binders below were run against T3, FcγRIa extracellular domain with C-terminal His tag (human, UniProt P12314 16-292) (assay: SPR; He/Con_1a divided by He/Con_2b (FcγRIa against FcγRIIb)).
T3 construct: extracellular domain; also called FcgRI; CD64; not shown: His tag at the C terminus
T3 sequence (P12314 16-292): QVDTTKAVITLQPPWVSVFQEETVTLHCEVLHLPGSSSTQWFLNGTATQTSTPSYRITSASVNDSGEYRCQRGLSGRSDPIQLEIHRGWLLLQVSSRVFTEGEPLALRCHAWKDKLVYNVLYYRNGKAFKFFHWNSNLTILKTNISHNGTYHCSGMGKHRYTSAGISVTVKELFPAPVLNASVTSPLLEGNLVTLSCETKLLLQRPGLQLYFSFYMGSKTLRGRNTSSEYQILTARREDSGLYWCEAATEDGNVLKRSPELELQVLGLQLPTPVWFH

Row | Binder | He_1a/2b (Ia/IIb) [ratio]
75 | B26 | 7.05
76 | B27 | 6.71

These binders were tested against T4, FcγRIIa R (human, UniProt P12318 34-217) (assay: SPR (Biacore T100); He/Con_2aR divided by He/Con_2b (FcγRIIa R over FcγRIIb)).
T4 construct: extracellular domain; also called FcgRIIa R; FcγRIIa type R; not shown: His tag at the C terminus
T4 sequence (looked up): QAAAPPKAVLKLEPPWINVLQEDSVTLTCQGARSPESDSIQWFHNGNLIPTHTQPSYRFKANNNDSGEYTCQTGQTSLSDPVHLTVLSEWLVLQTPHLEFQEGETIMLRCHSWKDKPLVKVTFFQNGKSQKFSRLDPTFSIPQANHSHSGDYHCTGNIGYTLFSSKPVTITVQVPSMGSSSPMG
Method: as §1, §2

Row | Binder | He_2aR/2b (IIaR/IIb) [ratio]
77 | B28 | 1.9
78 | B29 | 2.47

The binders below were run against T3, FcγRIa extracellular domain with … (assay: SPR (Biacore), antibody captured, FcγR analyte; relative to GpH7-A5/GpH7-B3/GpL16-k0 = 100).

Row | Binder | He/Con_1a
79 | B26 | 63.3 % of HeCon Ab
80 | B27 | 65.8 % of HeCon Ab

These binders were tested against T4, FcγRIIa R (assay: SPR (Biacore T100), antibody captured on antigen peptide chip, FcγR as analyte; binding relative to GpH7-A5/GpH7-B3/GpL16-k0 = 100).
Method: as §1, §2

Row | Binder | He/Con_2aR (IIaR binding)
81 | B28 | 17.1 % of control
82 | B29 | 24.2 % of control
